Experimental data reported in PMC11602160, “Modulation of UPF1 catalytic activity upon interaction of SARS-CoV-2 Nucleocapsid protein with factors involved in nonsense mediated-mRNA decay”.

Assays:
[1] = molecular target: T1, UPF1 (CH-helicase core) (Homo sapiens, UniProt Q92900 115-352+364-925, internal_change); assay: fluorescence anisotropy; 1 mM Mg2+; Fluorescence anisotropy: 20 mM HEPES pH 7.5, 100 mM NaCl, 1 mM MgCl2, 100 µg/ml BSA, 5 nM RNA, 25 °C, 1 h; one-site fit with Hill slope. SEC conditions not in the material; conditions: protein: recombinant; tags: His6 or His-GST fusion, cleavable (TEV/3C); label: 5' 6-FAM; single strand
T1 sequence: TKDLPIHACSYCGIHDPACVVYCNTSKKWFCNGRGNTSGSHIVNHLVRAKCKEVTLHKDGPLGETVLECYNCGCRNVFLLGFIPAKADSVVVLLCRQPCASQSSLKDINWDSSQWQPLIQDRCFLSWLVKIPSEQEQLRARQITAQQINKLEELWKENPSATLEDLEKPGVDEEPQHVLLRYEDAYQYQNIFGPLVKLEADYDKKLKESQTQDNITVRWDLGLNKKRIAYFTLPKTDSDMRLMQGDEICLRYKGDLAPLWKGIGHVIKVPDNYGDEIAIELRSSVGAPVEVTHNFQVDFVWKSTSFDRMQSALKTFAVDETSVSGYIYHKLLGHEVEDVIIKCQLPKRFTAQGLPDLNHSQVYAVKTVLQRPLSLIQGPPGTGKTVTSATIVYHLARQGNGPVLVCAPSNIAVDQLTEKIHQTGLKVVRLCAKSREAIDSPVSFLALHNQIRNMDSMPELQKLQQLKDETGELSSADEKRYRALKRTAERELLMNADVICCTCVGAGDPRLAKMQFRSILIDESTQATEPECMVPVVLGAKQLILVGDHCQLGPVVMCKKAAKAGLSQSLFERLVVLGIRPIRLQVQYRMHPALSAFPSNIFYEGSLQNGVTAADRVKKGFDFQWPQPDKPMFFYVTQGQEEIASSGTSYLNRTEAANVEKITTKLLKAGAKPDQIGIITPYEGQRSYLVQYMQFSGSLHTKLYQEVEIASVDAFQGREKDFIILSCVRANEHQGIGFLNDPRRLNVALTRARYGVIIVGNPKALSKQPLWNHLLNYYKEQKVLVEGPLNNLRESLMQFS

[2] = molecular target: Nfl (Nucleocapsid full-length) (SARS-CoV-2, UniProt P0DTC9 1-419); assay: as above; conditions: protein: recombinant; tags: His6 or His-GST fusion, cleavable (TEV/3C); chain copies: 2; label: 5' 6-FAM; single strand

B1: U12 (12-mer poly-U RNA) (ssRNA)
RNA: UUUUUUUUUUUU
Q: Which Kd [1] does the source give for B1 here?
A: Its Kd is roughly 50 nM.

Q: What about the Kd [2] of the same binder?
A: The Kd was 82 nM.
